We go through 1 protein from patent US20110123511.

In data set [1] the target is full-length free histone H3 (individual core histone).
Data set [2] concerns the target peptide containing H3 residues 1-20.
Data set [3] has as its target H3 peptide containing residues 15-30.
Data set [4] deals with GST-fusion histone H3 peptide (residues 1-57), wild-type.
Data set [5] concerns the target GST-fusion histone H3 peptide (residues 1-57), K27R mutant [GST: P08515].

B1: recombinant wild-type vSET expressed in E. coli BL21 (protein)
chain: MFNDRVIVKKSPLGGYGVFARKSFEKGELVEECLCIVRHNDDWGTALEDYLFSRKNMSAMALGFGAIFNHSKDPNARHELTAGLKRMRIFTIKPIAIGEEITISYGDDYWLSRPRLTQN
Turning to B1, the histone methyltransferase activity result with core histone H2B is “confirming its activity for full-length free H3 and H3 within the nucleosome, but not other core histones”; in the data set with core histone H2A, “confirming its activity for full-length free H3 and H3 within the nucleosome, but not other core histones”; in data set [1] it was “confirming its activity for full-length free H3 and H3 within the nucleosome, but not other core histones”; with core histone H4 it was “confirming its activity for full-length free H3 and H3 within the nucleosome, but not other core histones”. Besides, the “methylation activity with H3 peptides (14C-methyl-SAM)” value in data set [2] is on record as “Like vSET, these viral SET proteins only methylated a H3 peptide containing residues 15-30 but not a peptide containing H3 residues 1-20”; in data set [3], “Like vSET, these viral SET proteins only methylated a H3 peptide containing residues 15-30 but not a peptide containing H3 residues 1-20”. The “methylation assay (methyl transfer from 14C-methyl-SAM)” value in data set [4] and in data set [5] was “The methylation assay showed that vSET was only active when H3 contained K27” each time.
